US20200024330A1

Experiments:
Test in all cases: cell-based or functional assay
[1] = target: HIV-1 Env of isolate MG RM-D-003 (subtype D) (HIV-1)
[2] = target: HIV-1 JR-CSF Env D167A (HIV-1 (isolate JR-CSF)) (UniProt P20871)
[3] = target: HIV-1 Env of isolate 98CN006 (subtype CRF08 BC) (HIV-1)
[4] = target: HIV-1 Env of isolate MGRM-C-007 (pseudovirus) (HIV-1 isolate MGRM-C-007, subtype C)
[5] = target: HIV-1 Env of isolate MGRM-G-025 (HIV-1)
[6] = target: HIV-1 Env of isolate MGRM-C-026 (pseudovirus) (HIV-1 isolate MGRM-C-026, subtype C)
[7] = target: HIV-1 Env of isolate MGRM-F1-018 (HIV-1)
[8] = target: HIV-1 Env of isolate MGRM-F1-006 (subtype F) (HIV-1)
[9] = target: HIV-1 JR-CSF Env R166A (HIV-1 (isolate JR-CSF)) (UniProt P20871)
[10] = target: HIV-1 Env of isolate MGRM-C-015 (pseudovirus) (HIV-1 isolate MGRM-C-015, subtype C)
[11] = target: HIV-1 Env of isolate MGRM-F1-023 (HIV-1)
[12] = target: HIV-1 Env of isolate MGRM-D-014 (HIV-1)
[13] = target: HIV-1 Env of isolate MGRM-Chronic-B-003 (HIV-1)
[14] = target: HIV-1 Env of isolate MGRM-D-021 (HIV-1)
[15] = target: HIV-1 Env of isolate MGRM-D-019 (HIV-1)
[16] = target: HIV-1 Env of isolate MGRM-D-011 (HIV-1)
[17] = target: HIV-1 Env of isolate 94UG103 (HIV-1)
[18] = target: HIV-1 Env of isolate 98CN009 (HIV-1)
[19] = target: HIV-1 Env of isolate MGRM-C-017 (HIV-1)
[20] = target: HIV-1 Env of isolate MGRM-C-026 (HIV-1)
[21] = target: HIV-1 Env of isolate MGRM-AE-007 (CRF01_AE), on pseudovirus (HIV-1)
[22] = target: HIV-1 Env of isolate MGRM-A-010 (clade A), on pseudovirus (HIV-1)
[23] = target: HIV-1 Env of isolate MGRM-D-028 (subtype D), on pseudovirus (HIV-1)
[24] = target: HIV-1 Env of isolate MGRM-D-029 (subtype D), on pseudovirus (HIV-1)
[25] = target: HIV-1 Env of isolate MGRM-F1-017 (subtype F), on pseudovirus (HIV-1)
[26] = target: HIV-1 Env of isolate APV-17 (pseudovirus) (HIV-1 isolate APV-17, subtype B)
[27] = target: HIV-1 Env of isolate MGRM-D-024 (subtype D), on pseudovirus (HIV-1)
[28] = target: HIV-1 Env of isolate 93TH305 (pseudovirus) (HIV-1 isolate 93TH305, subtype B)
[29] = target: HIV-1 MGRM-C-027 envelope glycoprotein (Env) on pseudovirus (HIV-1)
[30] = target: HIV-1 Env of pseudovirus JRCSF, clade B (HIV-1) (UniProt P20871)
[31] = target: HIV-1 MGRM-F1-018 Env (pseudovirus) (HIV-1)
[32] = target: HIV-1 Env of pseudovirus SC422661.8 (Acute), clade B (HIV-1)
[33] = target: HIV-1 97ZA012 envelope glycoprotein (Env) on pseudovirus (HIV-1)
[34] = target: HIV-1 Env of isolate MGRM-G-015 (clade G pseudovirus) (HIV-1)
[35] = target: HIV-1 Env of isolate MGRM-D-019 (clade D) (HIV-1)
[36] = target: HIV-1 APV-17 envelope protein (Env) on pseudovirus (HIV-1)
[37] = target: HIV-1 MGRM-A-013 envelope glycoprotein (Env) (HIV-1)
[38] = target: HIV-1 92RW024 envelope glycoprotein (Env) on pseudovirus (HIV-1)
[39] = target: HIV-1 IAVI-C3 envelope protein (Env) on pseudovirus (HIV-1)

5145_B14 (PGT-127) (antibody)
IC50 (µg/mL), pseudovirus neutralization [1]: 0.029 µg/mL
Fold IC50 increase relative to wild-type [2]: 1.6 fold
IC50 (µg/mL), pseudovirus neutralization [3]: 0.067 µg/mL
IC50 (µg/mL) neutralization [4]: > 50 µg/mL
IC50, pseudovirus neutralization [5]: 19.3 µg/mL
IC50 (µg/mL) neutralization [6]: 0.014 µg/mL
IC50 [7]: 3.59 µg/mL
IC50 (µg/mL), pseudovirus neutralization [8]: 7.17 µg/mL
Fold IC50 increase relative to wild-type [9]: 1.6 fold
IC50 (µg/mL) neutralization [10]: > 50 µg/mL
IC50 [11]: 0.119 µg/mL

VRC01 (antibody)
IC50, pseudovirus neutralization [12]: 0.332 µg/mL
IC50 [13]: 0.1 µg/mL
IC50, pseudovirus neutralization [14]: 33.4 µg/mL
IC50, pseudovirus neutralization [7]: 0.032 µg/mL
IC50, pseudovirus neutralization [15]: 0.119 µg/mL
IC50, pseudovirus neutralization [16]: 0.075 µg/mL
IC50, pseudovirus neutralization [11]: 0.392 µg/mL

PGV04 (antibody)
IC50 (µg/mL), pseudovirus neutralization [12]: 0.194 µg/mL
IC50 (µg/mL), pseudovirus neutralization [14]: > 50 µg/mL
IC50 [17]: 0.202 µg/mL
IC50 (µg/mL), pseudovirus neutralization [15]: 0.35 µg/mL
IC50 (µg/mL), pseudovirus neutralization [16]: 0.025 µg/mL
IC50, pseudovirus neutralization [18]: 0.0125 µg/mL

5114_A19 (PGT-128) (antibody)
IC50 [19]: 1.06 µg/mL
Fold IC50 increase relative to wild-type [2]: 0.3 fold
IC50 [20]: 0.007 µg/mL
IC50, single-round pseudovirus neutralization [21]: > 50 µg/mL
IC50, single-round pseudovirus neutralization [22]: 0.005 µg/mL
IC50 [12]: 0.013 µg/mL
IC50, pseudovirus neutralization [23]: > 50 µg/mL
IC50, pseudovirus neutralization [5]: 0.017 µg/mL
IC50 [13]: 0.007 µg/mL
IC50 [14]: 0.014 µg/mL
neutralization IC50 [17]: 0.011 µg/mL
IC50, pseudovirus neutralization [24]: > 50 µg/mL
IC50, pseudovirus neutralization [25]: 11.7 µg/mL
IC50 [15]: > 50 µg/mL
IC50 [16]: 0.007 µg/mL
IC50 (µg/mL) neutralization [26]: 0.016 µg/mL
IC50 [18]: 0.025 µg/mL
IC50, pseudovirus neutralization [27]: 0.067 µg/mL
Fold IC50 increase relative to wild-type [9]: 2.7 fold
IC50 (µg/mL) neutralization [28]: 0.006 µg/mL

5136_H01 (PGT-131) (antibody)
IC50 [19]: > 50 µg/mL
Fold IC50 increase relative to wild-type [2]: 1.2 fold
IC50 [20]: 1.67 µg/mL
IC50, single-round pseudovirus neutralization [21]: 0.026 µg/mL
IC50, single-round pseudovirus neutralization [22]: 0.01 µg/mL
IC50 [12]: 0.516 µg/mL
IC50, pseudovirus neutralization [23]: > 50 µg/mL
IC50, pseudovirus neutralization [5]: 7.75 µg/mL
IC50 [13]: > 50 µg/mL
IC50 [14]: 0.106 µg/mL
neutralization IC50 [17]: 1.1 µg/mL
IC50, pseudovirus neutralization [24]: > 50 µg/mL
IC50, pseudovirus neutralization [25]: > 50 µg/mL
IC50 [15]: > 50 µg/mL
IC50 [16]: 0.756 µg/mL
IC50 (µg/mL) neutralization [26]: > 50 µg/mL
IC50 [18]: 4.05 µg/mL
IC50, pseudovirus neutralization [27]: > 50 µg/mL
Fold IC50 increase relative to wild-type [9]: 1.6 fold
IC50 (µg/mL) neutralization [28]: 0.016 µg/mL

1496_C09 (PG9) (TCN-109) (antibody)
IC50 (ug/ml), neutralizing activity [29]: 2.45 µg/mL
IC50 neutralization [29]: 2.45 µg/mL
IC50 (µg/ml), pseudovirus neutralization [30]: 0.003 µg/mL
IC50 (µg/ml), pseudovirus neutralization [31]: 0.03 µg/mL
IC50 (µg/mL), pseudovirus neutralization [12]: 0.023 µg/mL
IC50 [17]: 0.34 µg/mL
IC50 (µg/ml), pseudovirus neutralization [32]: 0.79 µg/mL
IC50 (µg/ml), pseudovirus neutralization [33]: 1.27 µg/mL
IC50 (µg/ml), pseudovirus neutralization [34]: 1.51 µg/mL
IC50 (µg/ml), pseudovirus neutralization [35]: 0.03 µg/mL
IC50 (µg/mL), pseudovirus neutralization [15]: 0.038 µg/mL
IC50 (µg/mL), pseudovirus neutralization [16]: 0.071 µg/mL
neutralization IC50 [36]: 26.4 µg/mL
IC50 (µg/ml), pseudovirus neutralization [37]: 0.16 µg/mL
IC50, pseudovirus neutralization [18]: 0.371 µg/mL
IC50 (µg/ml), pseudovirus neutralization [38]: 0.18 µg/mL
neutralization IC50 [39]: 12.9 µg/mL

4858_P08 (PGT-123) (antibody)
IC50 (µg/mL), pseudovirus neutralization [1]: 3.74 µg/mL
Fold IC50 increase relative to wild-type [2]: 1.2 fold
IC50 (µg/mL), pseudovirus neutralization [3]: 0.008 µg/mL
IC50 (ug/ml), neutralizing activity [29]: 0.0169 µg/mL
IC50, pseudovirus neutralization [29]: 0.0169 µg/mL
IC80, pseudovirus neutralization [29]: 0.149 µg/mL
IC90 (pseudovirus neutralization) [29]: > 10 µg/mL
IC95, pseudovirus neutralization [29]: > 10 µg/mL
IC50 (µg/mL) neutralization [4]: 0.547 µg/mL
IC50, pseudovirus neutralization [5]: 0.046 µg/mL
IC50 (µg/mL) neutralization [6]: 0.001 µg/mL
IC50 [7]: 0.054 µg/mL
IC50 (µg/mL), pseudovirus neutralization [8]: 6.89 µg/mL
Fold IC50 increase relative to wild-type [9]: 0.9 fold
IC50 (µg/mL) neutralization [10]: 13.1 µg/mL
IC50 [11]: 0.053 µg/mL
